Source: the supplement of paper PMC10065799, “High-throughput profiling of sequence recognition by tyrosine kinases and SH2 domains using bacterial peptide display” (eLife, 2023)

Columns and labels:
AncSZ = assay: phosphorylation enrichment, bacterial display (enrichment ratio); higher = better substrate or ligand; peptides without Tyr show the background
EPHB1 = EPHB1 (UniProt P54762); assay: as above
EPHB2 = EPHB2 (UniProt P29323); assay: as above
FGFR1 = FGFR1 (UniProt P11362); assay: as above
FGFR3 = FGFR3 (UniProt P22607); assay: as above
Fer (mouse) = assay: as above
Fes = Fes (UniProt P07332); assay: as above
Fyn = Fyn (UniProt P06241); assay: as above
Hck = Hck (UniProt P08631); assay: as above
Jak2 = Jak2 (UniProt O60674); assay: as above
MERTK = MERTK (UniProt Q12866); assay: as above
c-Abl (mouse) = assay: as above
c-Src = assay: as above
Grb2 SH2 = Grb2 SH2 (UniProt P62993); assay: SH2 binding enrichment of the phosphorylated peptide, bacterial display (enrichment ratio); higher = better substrate or ligand; peptides without Tyr show the background
SHP2-C SH2 = assay: as above
c-Src SH2 = assay: as above
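Wherever SH2 binding enrichment of the phosphorylated peptide, bacterial display is given: peptide library displayed on the E. coli surface as eCPX fusions, selected cells deep-sequenced, score is each peptide's frequency after selection divided by its frequency in the input.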
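Wherever phosphorylation enrichment, bacterial display is given: 11-residue human phosphosite peptides and single-mutation variants displayed on the E. coli surface, counted by deep sequencing, each peptide's frequency after selection divided by its frequency in the unselected input library; frequency after pTyr selection over input frequency; kinase dosed for 20-30% of maximal phosphorylation in three min.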

MERTK, sequence (Q12866 whole entry, looked up): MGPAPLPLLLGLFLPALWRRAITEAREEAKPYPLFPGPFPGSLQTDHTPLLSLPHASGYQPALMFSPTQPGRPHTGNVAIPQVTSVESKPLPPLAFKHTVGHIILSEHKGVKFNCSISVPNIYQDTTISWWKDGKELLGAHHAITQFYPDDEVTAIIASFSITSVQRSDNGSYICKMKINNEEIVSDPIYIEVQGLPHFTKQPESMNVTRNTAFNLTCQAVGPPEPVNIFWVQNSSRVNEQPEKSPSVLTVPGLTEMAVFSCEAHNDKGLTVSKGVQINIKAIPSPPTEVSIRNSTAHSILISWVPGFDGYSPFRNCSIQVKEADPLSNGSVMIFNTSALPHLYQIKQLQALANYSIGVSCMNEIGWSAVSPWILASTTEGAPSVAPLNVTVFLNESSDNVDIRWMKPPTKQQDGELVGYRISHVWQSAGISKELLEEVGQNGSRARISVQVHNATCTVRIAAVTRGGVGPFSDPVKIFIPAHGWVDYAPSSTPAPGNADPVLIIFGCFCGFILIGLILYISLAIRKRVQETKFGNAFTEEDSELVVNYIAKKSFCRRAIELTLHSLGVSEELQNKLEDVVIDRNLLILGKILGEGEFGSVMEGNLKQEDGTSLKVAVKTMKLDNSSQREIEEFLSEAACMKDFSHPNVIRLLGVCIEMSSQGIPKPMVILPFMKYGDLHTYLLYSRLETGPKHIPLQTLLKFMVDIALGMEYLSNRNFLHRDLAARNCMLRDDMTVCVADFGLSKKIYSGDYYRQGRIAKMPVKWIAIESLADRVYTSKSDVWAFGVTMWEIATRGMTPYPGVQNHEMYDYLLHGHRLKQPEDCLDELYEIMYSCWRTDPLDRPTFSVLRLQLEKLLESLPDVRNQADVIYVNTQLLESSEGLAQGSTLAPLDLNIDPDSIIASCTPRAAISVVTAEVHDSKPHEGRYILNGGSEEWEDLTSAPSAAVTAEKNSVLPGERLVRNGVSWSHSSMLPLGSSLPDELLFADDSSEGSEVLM
Fes, sequence (P07332 whole entry, looked up): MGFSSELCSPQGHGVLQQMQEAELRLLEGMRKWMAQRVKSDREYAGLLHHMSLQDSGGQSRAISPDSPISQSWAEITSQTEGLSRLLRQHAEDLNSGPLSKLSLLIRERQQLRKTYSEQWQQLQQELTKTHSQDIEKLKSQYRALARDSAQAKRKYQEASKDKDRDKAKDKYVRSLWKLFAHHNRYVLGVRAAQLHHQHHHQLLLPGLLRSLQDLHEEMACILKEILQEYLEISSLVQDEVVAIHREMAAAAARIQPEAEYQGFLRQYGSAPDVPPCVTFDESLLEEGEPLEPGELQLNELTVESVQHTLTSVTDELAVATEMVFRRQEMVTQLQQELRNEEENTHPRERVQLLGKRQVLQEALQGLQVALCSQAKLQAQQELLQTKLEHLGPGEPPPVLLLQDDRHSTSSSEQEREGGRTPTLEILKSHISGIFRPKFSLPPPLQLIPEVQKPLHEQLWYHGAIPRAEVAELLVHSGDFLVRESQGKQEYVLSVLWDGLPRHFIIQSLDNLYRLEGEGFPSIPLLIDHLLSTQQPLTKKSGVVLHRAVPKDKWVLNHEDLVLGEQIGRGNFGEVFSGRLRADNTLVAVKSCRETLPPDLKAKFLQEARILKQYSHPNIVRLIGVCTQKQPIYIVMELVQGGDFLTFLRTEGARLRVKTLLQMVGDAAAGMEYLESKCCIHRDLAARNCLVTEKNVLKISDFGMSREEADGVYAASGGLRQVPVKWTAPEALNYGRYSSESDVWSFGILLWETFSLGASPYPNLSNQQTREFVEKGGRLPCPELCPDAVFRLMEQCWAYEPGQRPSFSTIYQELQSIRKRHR
FGFR3, sequence (P22607 whole entry, looked up): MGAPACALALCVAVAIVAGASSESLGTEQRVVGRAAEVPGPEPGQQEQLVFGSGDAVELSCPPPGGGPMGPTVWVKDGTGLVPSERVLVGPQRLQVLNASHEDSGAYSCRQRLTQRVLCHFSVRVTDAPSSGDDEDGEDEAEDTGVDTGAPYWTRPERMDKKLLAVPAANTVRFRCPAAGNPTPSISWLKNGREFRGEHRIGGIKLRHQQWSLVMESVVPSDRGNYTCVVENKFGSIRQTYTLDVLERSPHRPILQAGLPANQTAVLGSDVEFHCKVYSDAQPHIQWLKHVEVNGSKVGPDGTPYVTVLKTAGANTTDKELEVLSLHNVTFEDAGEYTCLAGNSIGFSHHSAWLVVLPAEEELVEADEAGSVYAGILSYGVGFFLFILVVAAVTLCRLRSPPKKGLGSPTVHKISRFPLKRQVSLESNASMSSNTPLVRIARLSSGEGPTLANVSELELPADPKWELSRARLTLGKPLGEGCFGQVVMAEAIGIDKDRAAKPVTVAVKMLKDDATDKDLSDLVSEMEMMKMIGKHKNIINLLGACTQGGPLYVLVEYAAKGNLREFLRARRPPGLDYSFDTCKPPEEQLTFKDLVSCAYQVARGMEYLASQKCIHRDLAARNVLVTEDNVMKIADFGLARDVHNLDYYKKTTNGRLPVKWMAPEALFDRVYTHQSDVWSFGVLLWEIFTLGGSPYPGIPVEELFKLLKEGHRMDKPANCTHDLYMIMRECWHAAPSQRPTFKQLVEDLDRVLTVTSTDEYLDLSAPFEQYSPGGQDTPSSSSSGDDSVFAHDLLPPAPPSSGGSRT
Fyn, sequence (P06241 whole entry, looked up): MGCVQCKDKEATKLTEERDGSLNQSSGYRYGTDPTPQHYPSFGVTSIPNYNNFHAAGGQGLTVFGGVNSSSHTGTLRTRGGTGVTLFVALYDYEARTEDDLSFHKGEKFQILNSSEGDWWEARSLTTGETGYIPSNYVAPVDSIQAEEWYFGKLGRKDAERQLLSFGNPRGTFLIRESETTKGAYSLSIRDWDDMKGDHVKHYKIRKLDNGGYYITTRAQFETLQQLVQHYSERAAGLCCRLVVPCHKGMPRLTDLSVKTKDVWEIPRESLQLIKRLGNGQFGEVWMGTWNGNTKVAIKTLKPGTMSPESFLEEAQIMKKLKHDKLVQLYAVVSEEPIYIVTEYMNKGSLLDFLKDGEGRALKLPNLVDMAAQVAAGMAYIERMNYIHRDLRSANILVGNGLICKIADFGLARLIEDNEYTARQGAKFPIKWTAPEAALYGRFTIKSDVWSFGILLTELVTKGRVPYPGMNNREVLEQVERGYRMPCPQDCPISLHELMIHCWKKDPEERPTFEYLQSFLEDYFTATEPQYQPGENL
FGFR1, sequence (P11362 whole entry, looked up): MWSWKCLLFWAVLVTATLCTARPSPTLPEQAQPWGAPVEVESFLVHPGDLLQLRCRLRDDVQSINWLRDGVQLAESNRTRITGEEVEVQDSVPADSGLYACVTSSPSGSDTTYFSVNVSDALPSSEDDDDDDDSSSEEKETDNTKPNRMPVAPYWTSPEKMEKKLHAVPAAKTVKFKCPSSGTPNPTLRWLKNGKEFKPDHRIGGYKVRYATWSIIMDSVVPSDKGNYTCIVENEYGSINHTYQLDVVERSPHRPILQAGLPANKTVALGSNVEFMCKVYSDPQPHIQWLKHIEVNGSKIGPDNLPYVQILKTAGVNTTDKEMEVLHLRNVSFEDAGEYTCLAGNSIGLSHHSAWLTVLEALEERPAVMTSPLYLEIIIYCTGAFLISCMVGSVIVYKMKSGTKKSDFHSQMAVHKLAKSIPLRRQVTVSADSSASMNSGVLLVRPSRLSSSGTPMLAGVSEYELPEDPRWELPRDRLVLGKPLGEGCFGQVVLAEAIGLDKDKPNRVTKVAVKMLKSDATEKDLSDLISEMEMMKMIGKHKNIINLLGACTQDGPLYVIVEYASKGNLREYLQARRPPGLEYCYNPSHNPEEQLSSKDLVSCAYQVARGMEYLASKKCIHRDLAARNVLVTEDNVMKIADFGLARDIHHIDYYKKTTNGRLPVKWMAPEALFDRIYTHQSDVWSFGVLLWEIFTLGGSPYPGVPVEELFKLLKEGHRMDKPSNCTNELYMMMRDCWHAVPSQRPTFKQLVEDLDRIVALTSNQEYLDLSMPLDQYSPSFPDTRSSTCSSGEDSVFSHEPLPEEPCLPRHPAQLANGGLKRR
Hck, sequence (P08631 whole entry, looked up): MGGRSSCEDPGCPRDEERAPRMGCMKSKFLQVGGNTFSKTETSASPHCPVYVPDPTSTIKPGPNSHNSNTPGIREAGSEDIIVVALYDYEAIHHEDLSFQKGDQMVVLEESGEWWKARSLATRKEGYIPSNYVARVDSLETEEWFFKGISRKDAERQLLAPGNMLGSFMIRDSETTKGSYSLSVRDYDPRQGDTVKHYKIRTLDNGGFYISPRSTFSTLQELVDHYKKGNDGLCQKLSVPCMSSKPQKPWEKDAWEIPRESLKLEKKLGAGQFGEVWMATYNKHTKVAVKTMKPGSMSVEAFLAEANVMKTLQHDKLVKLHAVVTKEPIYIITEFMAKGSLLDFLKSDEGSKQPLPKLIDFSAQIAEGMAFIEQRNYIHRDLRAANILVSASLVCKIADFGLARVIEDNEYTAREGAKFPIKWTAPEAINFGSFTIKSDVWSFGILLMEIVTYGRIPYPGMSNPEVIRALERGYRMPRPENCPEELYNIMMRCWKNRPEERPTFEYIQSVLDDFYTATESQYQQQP

Sequence | SH2 binding enrichment (Grb2 SH2) | SH2 binding enrichment (SHP2-C SH2) | SH2 binding enrichment (c-Src SH2) | phosphorylation enrichment (AncSZ) | phosphorylation enrichment (EPHB1) | phosphorylation enrichment (EPHB2) | phosphorylation enrichment (FGFR1) | phosphorylation enrichment (FGFR3) | phosphorylation enrichment (Fer (mouse)) | phosphorylation enrichment (Fes) | phosphorylation enrichment (Fyn) | phosphorylation enrichment (Hck) | phosphorylation enrichment (Jak2) | phosphorylation enrichment (MERTK) | phosphorylation enrichment (c-Abl (mouse)) | phosphorylation enrichment (c-Src)
LSDGPYSNSYE [EPOR_Y485_P488S] | 0.557 | 0.523 | 1.56 | 1.24 | 0.944 | 0.67 | 0.862 | 1.02 | 0.604 | 1.2 | 0.59 | 0.664 | 1.38 | 0.622 | 0.762 | 0.968
GRFSGYKSKHG [EPHA3_Y570_C568S] | 0.857 | 0.631 | 0.92 | 0.39 | 0.34 | 0.256 | 0.312 | 0.392 | 0.278 | 0.438 | 0.407 | 0.361 | 0.438 | 0.397 | 0.65 | 0.364
SPGGDYAAMGA [ERBB3_Y1276_G1271S] | 0.749 | 0.487 | 1.03 | 0.7 | 1.52 | 0.901 | 0.705 | 0.609 | 0.456 | 0.861 | 0.484 | 0.455 | 0.708 | 0.476 | 0.622 | 0.445
YLQEIHNSNNQ [FGG_Y140_Y140H] | 0.802 | 0.871 | 0.578 | 0.618 | 0.427 | 0.431 | 0.404 | 0.63 | 0.349 | 0.63 | 0.431 | 0.432 | 0.563 | 0.484 | 0.445 | 0.414
PADQAYSWFQH [NDST1_Y711_R709Q_YF] | 0.648 | 1.01 | 0.891 | 1.7 | 1.3 | 0.926 | 5.17 | 4.33 | 26.6 | 2.91 | 1.38 | 1.36 | 0.855 | 7.11 | 0.58 | 2.41
LVPPRYARSEI [PKP2_Y194] | 0.771 | 0.787 | 0.538 | 1.26 | 0.597 | 0.72 | 0.74 | 0.941 | 0.697 | 1.34 | 0.631 | 0.783 | 0.495 | 0.528 | 0.345 | 0.394
NIFSFYLSRDP [CTSD_Y232] | 1.52 | 1.64 | 1.09 | 0.85 | 0.551 | 0.506 | 0.348 | 0.697 | 0.528 | 1.14 | 0.4 | 0.461 | 0.951 | 0.333 | 0.619 | 0.409
HYGNNYRDVLQ [MACC1_Y803] | 0.691 | 1.79 | 0.568 | 0.622 | 0.643 | 0.559 | 0.444 | 0.423 | 0.565 | 0.576 | 0.353 | 0.694 | 0.661 | 0.612 | 0.438 | 0.652
EVGRVYLFLQP [ITGA2B_Y360] | 0.726 | 0.737 | 0.417 | 1.18 | 0.838 | 0.676 | 0.401 | 0.676 | 0.627 | 1.51 | 0.379 | 0.445 | 1.3 | 0.34 | 0.884 | 0.409
WEPFGYAVTRC [PTPRT_Y412] | 0.683 | 0.589 | 0.685 | 0.947 | 0.591 | 0.567 | 0.547 | 0.707 | 0.458 | 0.999 | 0.402 | 0.479 | 0.915 | 0.345 | 0.673 | 0.382
QGRQTYLPQPA [DDR2_Y813] | 0.627 | 0.44 | 0.553 | 0.752 | 0.527 | 0.473 | 0.552 | 0.485 | 0.408 | 0.821 | 0.495 | 0.713 | 0.778 | 0.433 | 0.844 | 0.477

Second part, led by results:

SH2 binding enrichment (Grb2 SH2) | SH2 binding enrichment (SHP2-C SH2) | SH2 binding enrichment (c-Src SH2) | Sequence | phosphorylation enrichment (AncSZ) | phosphorylation enrichment (EPHB1) | phosphorylation enrichment (EPHB2) | phosphorylation enrichment (FGFR1) | phosphorylation enrichment (FGFR3) | phosphorylation enrichment (Fer (mouse)) | phosphorylation enrichment (Fes) | phosphorylation enrichment (Fyn) | phosphorylation enrichment (Hck) | phosphorylation enrichment (Jak2) | phosphorylation enrichment (MERTK) | phosphorylation enrichment (c-Abl (mouse)) | phosphorylation enrichment (c-Src)
0.746 | 0.595 | 0.534 | RILDVYIFLGP [GAA_Y340_G335R] | 1 | 0.842 | 0.676 | 0.836 | 0.672 | 0.584 | 1.05 | 0.46 | 0.547 | 0.858 | 0.492 | 0.543 | 0.393
0.729 | 0.525 | 0.837 | TRTDAYAVSSF | 0.78 | 0.383 | 0.464 | 0.567 | 0.534 | 0.405 | 0.657 | 0.419 | 0.357 | 1.08 | 0.388 | 0.645 | 0.443
0.762 | 0.886 | 0.472 | DMDATYRPMFS [JUP_Y701_YF] | 0.831 | 0.52 | 0.448 | 0.498 | 0.649 | 0.465 | 0.99 | 0.592 | 0.762 | 0.752 | 0.461 | 0.763 | 0.624
0.804 | 0.567 | 0.414 | EPSVPYRGMVF [GLI3_Y104_T107M] | 0.704 | 0.43 | 0.56 | 0.422 | 0.508 | 0.38 | 0.816 | 0.413 | 0.376 | 0.639 | 0.432 | 0.471 | 0.462
0.562 | 0.589 | 0.566 | AGIVDYNIIGW [MYH7_Y588] | 1.07 | 0.636 | 0.431 | 0.873 | 0.909 | 0.439 | 1.18 | 0.497 | 0.497 | 0.877 | 0.349 | 0.619 | 0.454
